Twelve molecules from publication PMC5867032, “Interactions of WRKY15 and WRKY33 transcription factors and their roles in the resistance of oilseed rape to Sclerotinia infection” can be followed below.

Data set [1] concerns the target T1, BnWRKY15 (Brassica napus, UniProt A0A291B474 1-319). Put plainly: EMSA; Beyotime EMSA binding buffer (composition, pH not stated), 40 nM Cy5 DNA probe, room temperature; 6% native PAGE in ice water bath. As to conditions: protein: recombinant; tags: 6xHis (pET-32a fusion); label: Cy5. (In general: A gel shift assay detects complexes by their altered migration in electrophoresis.)

Data set [2] deals with T1, BnWRKY15. The data set can be described thus: competition; unlabelled competitor against Cy5-33probe; Beyotime EMSA binding buffer (composition, pH not stated), 40 nM Cy5 DNA probe, room temperature; 6% native PAGE in ice water bath. As to conditions: protein: recombinant; tags: 6xHis (pET-32a fusion); label: unlabelled.
Data set [3] has as its target T1, BnWRKY15. Put plainly: EMSA; competed by unlabelled 33probe (12.5x, 25x); Beyotime EMSA binding buffer (composition, pH not stated), 40 nM Cy5 DNA probe, room temperature; 6% native PAGE in ice water bath. The following applies: protein: recombinant; tags: 6xHis (pET-32a fusion); label: Cy5.
Data set [4] concerns the target T1, BnWRKY15. Put plainly: EMSA; alone; also outcompetes equal BnWRKY33; Beyotime EMSA binding buffer (composition, pH not stated), 40 nM Cy5 DNA probe, room temperature; 6% native PAGE in ice water bath. As to conditions: protein: recombinant; tags: 6xHis (pET-32a fusion); label: Cy5.

T1 sequence (A0A291B474 entry or part of it): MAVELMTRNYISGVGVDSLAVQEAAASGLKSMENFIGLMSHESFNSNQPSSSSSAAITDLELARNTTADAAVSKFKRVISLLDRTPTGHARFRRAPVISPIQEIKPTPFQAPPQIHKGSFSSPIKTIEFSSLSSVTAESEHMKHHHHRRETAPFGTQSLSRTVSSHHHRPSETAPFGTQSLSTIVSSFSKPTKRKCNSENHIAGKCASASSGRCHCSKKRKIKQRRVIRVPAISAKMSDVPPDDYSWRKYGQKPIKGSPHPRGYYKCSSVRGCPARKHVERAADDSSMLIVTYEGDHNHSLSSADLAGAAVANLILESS

B1: 3x third W-box (W3) (dsDNA)
DNA 1: CAACGGTCAAACTTCAACGGTCAAACTTCAACGGTCAAACTT
DNA 2: AAGTTTGACCGTTGAAGTTTGACCGTTGAAGTTTGACCGTTG
Take B1: the binding result in the data set with BnWRKY15 [1] is “binds”.

B2: GCC-box (dsDNA)
DNA 1: CATAAGAGCCGCCACT
DNA 2: AGTGGCGGCTCTTATG
In the case of B2, in the data set with BnWRKY15 [2], the binding result was “no binding”.

B3: 3x second W-box (W2) (dsDNA)
DNA 1: TGGTCTGACCATCTTGGTCTGACCATCTTGGTCTGACCATCT
DNA 2: AGATGGTCAGACCAAGATGGTCAGACCAAGATGGTCAGACCA
Regarding B3, the binding result with BnWRKY15 [1] is recorded as “binds”.

B4: Mt probe (three W-boxes mutated) (dsDNA)
DNA 1: TCAACCCGGGGGACACATGGTCCCGGGATCTCCTCTCCTCCTCTTCTTCTCCATCTTCTAATTTTTTCAACCCCGGGACTT
DNA 2: AAGTCCCGGGGTTGAAAAAATTAGAAGATGGAGAAGAAGAGGAGGAGAGGAGATCCCGGGACCATGTGTCCCCCGGGTTGA
Turning to B4, in the data set with BnWRKY15 [1], the binding result is given as “no binding”.

B5: 33probe (WT) (dsDNA)
DNA 1: TCAAAGTCAAGGACACATGGTCTGACCATCTCCTCTCCTCCTCTTCTTCTCCATCTTCTAATTTTTTCAACGGTCAAACTT
DNA 2: AAGTTTGACCGTTGAAAAAATTAGAAGATGGAGAAGAAGAGGAGGAGAGGAGATGGTCAGACCATGTGTCCTTGACTTTGA
As to B5, the binding result with BnWRKY15 [3] is on record as “binds”.

B6: W1m2 probe (dsDNA)
DNA 1: TCAAAGTGAAGGACACATGGTCTGACCATCTCCTCTCCTCCTCTTCTTCTCCATCTTCTAATTTTTTCAACGGTCAAACTT
DNA 2: AAGTTTGACCGTTGAAAAAATTAGAAGATGGAGAAGAAGAGGAGGAGAGGAGATGGTCAGACCATGTGTCCTTCACTTTGA
In the case of B6, the binding result with BnWRKY15 [1] is recorded as “binds”.

B7: W-box probe (Fig 12b) (dsDNA)
DNA 1: TCAAAGTCAAGGACACATGGTCTGACCATCTCCTCTCCTCCTCTTCTTCTCCATCTTCTAATTTTTTCAACGGTCAAACTT
DNA 2: AAGTTTGACCGTTGAAAAAATTAGAAGATGGAGAAGAAGAGGAGGAGAGGAGATGGTCAGACCATGTGTCCTTGACTTTGA
In the case of B7, the binding result with BnWRKY15 [4] is on record as “binds”.

B8: W1m1 probe (dsDNA)
DNA 1: TCAAAGTCTAGGACACATGGTCTGACCATCTCCTCTCCTCCTCTTCTTCTCCATCTTCTAATTTTTTCAACGGTCAAACTT
DNA 2: AAGTTTGACCGTTGAAAAAATTAGAAGATGGAGAAGAAGAGGAGGAGAGGAGATGGTCAGACCATGTGTCCTAGACTTTGA
Turning to B8, the binding result with BnWRKY15 [1] is “binds”.

B9: W1m4 probe (dsDNA)
DNA 1: TCAAAATCAAGGACACATGGTCTGACCATCTCCTCTCCTCCTCTTCTTCTCCATCTTCTAATTTTTTCAACGGTCAAACTT
DNA 2: AAGTTTGACCGTTGAAAAAATTAGAAGATGGAGAAGAAGAGGAGGAGAGGAGATGGTCAGACCATGTGTCCTTGATTTTGA
In the case of B9, the binding result in the data set with BnWRKY15 [1] was “binds”.

B10: W1m3 probe (dsDNA)
DNA 1: TCAAAGGCAAGGACACATGGTCTGACCATCTCCTCTCCTCCTCTTCTTCTCCATCTTCTAATTTTTTCAACGGTCAAACTT
DNA 2: AAGTTTGACCGTTGAAAAAATTAGAAGATGGAGAAGAAGAGGAGGAGAGGAGATGGTCAGACCATGTGTCCTTGCCTTTGA
For B10, the binding result in the data set with BnWRKY15 [1] was “binds”.

B11: W1m5 probe (dsDNA)
DNA 1: TCAACCCGGGGGACACATGGTCTGACCATCTCCTCTCCTCCTCTTCTTCTCCATCTTCTAATTTTTTCAACGGTCAAACTT
DNA 2: AAGTTTGACCGTTGAAAAAATTAGAAGATGGAGAAGAAGAGGAGGAGAGGAGATGGTCAGACCATGTGTCCCCCGGGTTGA
As for B11, the binding result with BnWRKY15 [1] is given as “binds”.

B12: 3x first W-box (W1) (dsDNA)
DNA 1: TCAAAGTCAAGGACTCAAAGTCAAGGACTCAAAGTCAAGGAC
DNA 2: GTCCTTGACTTTGAGTCCTTGACTTTGAGTCCTTGACTTTGA
As for B12, the binding result in the data set with BnWRKY15 [1] is on record as “binds”.
